Patent publication US20170363644A1 (ROCKEFELLER UNIVERSITY, published 2017)
Where no end group is shown, it is not given here.

Target: T1, factor XII (FXII) (human, UniProt P00748 20-615)
T1 construct: Endogenous FXII in human plasma in the pulldown; purified FXII in the chromogenic assay; also called FXII zymogen
T1 sequence (looked up): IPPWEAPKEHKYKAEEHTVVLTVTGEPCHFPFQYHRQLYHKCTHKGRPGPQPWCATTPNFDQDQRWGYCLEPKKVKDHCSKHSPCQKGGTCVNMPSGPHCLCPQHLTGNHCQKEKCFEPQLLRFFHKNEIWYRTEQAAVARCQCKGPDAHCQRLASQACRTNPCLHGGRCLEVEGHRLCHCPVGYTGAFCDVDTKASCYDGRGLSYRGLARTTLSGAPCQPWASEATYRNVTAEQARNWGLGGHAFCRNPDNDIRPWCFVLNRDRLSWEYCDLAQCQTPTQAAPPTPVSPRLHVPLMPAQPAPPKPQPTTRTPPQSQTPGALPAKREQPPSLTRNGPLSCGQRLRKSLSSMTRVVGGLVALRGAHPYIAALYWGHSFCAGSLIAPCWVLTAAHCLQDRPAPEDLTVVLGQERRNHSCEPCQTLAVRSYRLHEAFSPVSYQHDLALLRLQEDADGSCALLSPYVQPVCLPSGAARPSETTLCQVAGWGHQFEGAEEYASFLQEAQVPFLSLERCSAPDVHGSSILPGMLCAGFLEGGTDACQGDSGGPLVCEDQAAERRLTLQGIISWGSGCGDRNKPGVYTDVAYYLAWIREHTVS
Assay: streptavidin bead pulldown from human plasma, Western blot for FXII

binding result: no binding (tested: 500 Nm)
B1: biotinylated amylin (peptide, UniProt P10997 34-70, looked up)
peptide: KCNTATCATQRLANFLVHSSNNFGAILSSTNVGSNTY
modifications: ends and bridges not checked; also: biotinylated (site not given here)
notes: Control aggregating peptide in the pulldown
